First the molecules themselves.
T1: LHD101 chainA
T1 construct: also called LHD101A
T1 chain: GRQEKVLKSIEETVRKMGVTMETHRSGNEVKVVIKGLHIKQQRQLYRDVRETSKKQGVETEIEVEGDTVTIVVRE

T2: 274B53
T2 construct: also called LHD274B DHR53 stop
T2 chain: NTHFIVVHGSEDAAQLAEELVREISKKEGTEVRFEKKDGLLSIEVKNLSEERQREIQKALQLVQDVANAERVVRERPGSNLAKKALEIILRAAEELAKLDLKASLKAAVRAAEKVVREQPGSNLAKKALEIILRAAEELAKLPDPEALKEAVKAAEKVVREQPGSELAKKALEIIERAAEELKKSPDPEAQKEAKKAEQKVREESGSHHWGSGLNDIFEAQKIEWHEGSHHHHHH

T3: 101B62
T3 construct: also called LHD101B62
T3 chain: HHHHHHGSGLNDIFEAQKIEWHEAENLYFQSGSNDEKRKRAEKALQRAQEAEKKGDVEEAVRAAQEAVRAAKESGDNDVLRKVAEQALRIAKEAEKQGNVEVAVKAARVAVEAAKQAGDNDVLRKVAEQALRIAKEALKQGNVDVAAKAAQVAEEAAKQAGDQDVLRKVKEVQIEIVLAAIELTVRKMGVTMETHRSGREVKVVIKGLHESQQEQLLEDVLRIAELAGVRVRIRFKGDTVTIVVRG

T4: LHD101 chainB
T4 construct: also called LHD101B
T4 chain: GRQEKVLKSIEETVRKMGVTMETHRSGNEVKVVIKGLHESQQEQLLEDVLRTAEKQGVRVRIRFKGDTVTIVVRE

T5: DF202
T5 construct: Bivalent connector
T5 chain: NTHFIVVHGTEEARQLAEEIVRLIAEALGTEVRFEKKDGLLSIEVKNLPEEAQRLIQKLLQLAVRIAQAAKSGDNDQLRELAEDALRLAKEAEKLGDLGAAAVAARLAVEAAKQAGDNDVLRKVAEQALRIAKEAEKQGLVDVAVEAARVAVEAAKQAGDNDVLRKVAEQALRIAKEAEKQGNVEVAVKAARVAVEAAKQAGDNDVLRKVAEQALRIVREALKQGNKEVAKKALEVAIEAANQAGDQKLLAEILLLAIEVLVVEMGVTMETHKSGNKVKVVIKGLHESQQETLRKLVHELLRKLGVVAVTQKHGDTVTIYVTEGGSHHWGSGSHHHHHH

B1: 29B53 (designed binder)
chain: SSIFLLSNVDESARQLAEELVREISKKEGTEVRFEKDDGFLTIEVKNLSEERLREIARALQLIVDVANAERVVRERPGSNLAKKALEIILRAAEELAKLPLKASLKAAVIAAELVVREQPGSNLAKKALEIILRAAEELAKLPDPEALKEAVKAAEKVVREQPGSELAKKALEIIERAAEELKKSPDPEAQKEAKKAEQKVREERPGSSGSHHHHHH
notes: also called LHD29B53
B2: 278B (designed binder)
chain: GGSTVTFDITNIDWKSAELIMLAVYDIAQQEGTDVTFSFKEGELQITVKNLHEKWKRLIEMLIEACRRAQDPDPESLKEAVRIAEELVRLHPGNPLARAALKVILTAAEELAKLPDPEALKEAVKAAEKVVREQPGSNLAKKALEIILRAAEELAKLPDPEALKEAVKAAEKVVREQPGSELAKKALEIIERAAEELKKSPDPEAQKEAKKAEQKVREERPGSGGSGSHHWGSGSHHHHHH
notes: also called LHD278 B; LHD278 chainB
B3: 101B4 (designed binder)
chain: HHHHHHGSGLNDIFEAQKIEWHEAENLYFQSGSYEDECEEKARRVAEKVERLKRSGTSEDEIAEEVAREISEVIRTLKESGSSYEVICECVARIVAEIVEALKRSGTSEDEIAEIVARVISEVIRTLKESGSSYEVICECVARIVAEIVEALKRSGTSEEEIAEIVARVIQEVIRTLKESGSSYEVIRECLRRILEEVIEALKRSGVDSSEIVLIIIKIAVAVMGVTMEEHRSGNEVKVVIKGLHESQQEELLELVLRAAELAGVRVRIRFKGDTVTIVVRG
notes: also called LHD101B4
B4: LHD274 A76 (designed binder)
single chain, LHD274 chain A fused to DHR76: GSTTNFHLINGSEEARQVIEEIVEIIARLAGTEVHFEKSDGTLEIRVKNLHEELERLIKELIELALLLQLAKKEAIEEAKKQGNPELVEWVARAAEVVKEVLRVAAEAAGAGNPDLAKAAAELARAVIEAIEEAVKQGNAELVEWVARAAKVAAEVIKVAIQAEKEGNRDLFRAALELVRAVIEAIEEAVKQGNAELVERVARLAKKAAELIKRAIRAEKEGNRDERREALERVREVIERIEELVRQGNGSHHWGSGLNDIFEAQKIEWHEGSHHHHHH
B5: 101B14 (designed binder)
single chain, LHD101 chain B fused to DHR14: HHHHHHGSGLNDIFEAQKIEWHEAENLYFQSGSSEEVNERVKQLAEKAKEATDKEEVIEIVKELAELAKQSTDSELVNEIVKQLAEVAKEATDKELVIYIVKILAELAKQSTDSELVNEIVKQLAEVAKEATDKELVIYIVDILLKLAEQADDDELVEEIRKQLEEVAKEATDKELVEIIKAVIVLLVIISVVARMGVTMEIHKSGREVKVVIKGLHESQQEQLLEAVLRAAEEAGVRVRIRFKGDTVTIVVRG
notes: also called LHD101 B14
B6: LHD101 A10 (designed binder)
single chain, LHD101 chain A fused to DHR10: HHHHHHGSGLNDIFEAQKIEWHEAENLYFQSGSSSEKEELRERLVKIVVENAKRKGDDTEEAREAAREAFELVREAAERAGIDSSEVLELAIRLIKEVVENAQREGYDISEAARAAAEAFKRVAEAAKRAGITSSEVLELAIILIKLVVELAQRKGYDISEAARAAAELFKRLAEALKRAGKTSERALALLILLLAIEILVRDMGVTMETHPSGNEVKVVIKGLHIKQQRQLYRLVREAAKLLGVEVEIEVEGDTVTIVVRGGS
B7: LHD101A V69Q (designed binder)
chain: T1 chain with V69Q
B8: LHD101A_Q42M (designed binder)
chain: T1 chain with Q42M
B9: LHD101A_R43V (designed binder)
chain: T1 chain with R43V
B10: LHD101A_T70W (designed binder)
chain: T1 chain with T70W
B11: 202B57 (designed binder)
chain: GSSVEFHIVNISEKAAQIIERAVRAISKELGTEVRFEKRDGELTIEVKNLHERRLQEILLLIEAVKLLLLALKAVKEDPSTDALRAVLEAVRFASEVAKRVENPEAVAVLAELVIELALEAVKEDPSTDALRAVLEAVRLASEVAKRVTDADKALKIAKLVIELALEAVKEDPSEEAKRAVEEAKRLAEEVSKRVTDPELSEKIRQLVKELEEEAQKEDPSGSHHWGSGLNDIFEAQKIEWHEGSHHHHHH
B12: 202B64 (designed binder)
single chain, LHD202 chain B fused to DHR64: GSSVEFHIVNIDEDVAQLIELAVKLISKEEGTEVRFEKRDGELTIEVKNLHEKDLQLILELIEALLLIARAIELLRQAKEKGSEEDLEKALRTAEESARRLKKVLEKAEKLGNLGVALAAVAGVVLVAELLLRIAKESGSEEALERALRVAEEAARLAKRVLELAEKLGDAEAALLAVELVVRVAELLLRIAKESGSEEALERALRVAEEAARLAKRVLELAEKQGDAEVARRAVELVKRVAELLERIARESGSEEAKERAERVREEARELQERVKELREREGDGSHHWGSGLNDIFEAQKIEWHEGSHHHHHH
notes: also called LHD202 B64

Data set [1] deals with the molecule itself. The experiment in a line: SEC titration of the protomer alone at several injection concentrations (Superdex 200, normalised A230); self-association.
The next data set addresses T1, LHD101 chainA. Briefly: BLI steady-state titration, biotinylated unfused LHD101A on a streptavidin sensor. The source says: FIG. 8A-E. Characterization LHD binding in vitro. A: Designed models heterodimers (top row). Middle row, SEC binding experiments performed on a Superdex™ 75 column. Bottom row, biolayer interferometry kinetic binding traces. […] C: Kinetic binding traces from BLI. Equilibrium responses were used to fit equilibrium binding curves D: Equilibrium binding curves of LHDs from biolayer interferometry binding assays with data from C. […] Biotinylated unfused protomers were immobilized on streptavidin coated biosensors.
Biolayer interferometry experiments were performed on an OctetRED96 BLI system (ForteBio, Menlo Park, CA). Streptavidin coated biosensors were first equilibrated for at least 10 minutes in Octet buffer (10 mM HEPES pH 7.4, 150 mM NaCl, 3 mM EDTA, 0.05% Surfactant P20) supplemented with 1 mg/ml Bovine Serum Albumin (SigmaAldrich). Enzymatically biotinylated designs were immobilized onto the biosensors by dipping the biosensors into a solution with 10-50 nM protein for 30-120 s. This was followed by dipping in fresh octet buffer to establish a baseline for 120 s. Titration experiments were performed at 25° C. while rotating at 1,000 r.p.m. […]

For the next data set, the target named is T2, 274B53. The experiment in a line: SEC binding assay (Superdex 200, normalised A230) of A, B and the mixture AB. Here is the method:
(§1) Complexes and individual components were diluted in 20 mM Tris pH 8.0, 100 mM NaCl. After o/n equilibration of the mixtures at room temperature or 4 degrees C., 500 ul of sample was injected onto a Superdex™ 200 10/300 increase GL (dimers, linear assemblies) or Superose™ 6 increase 10/300 GL (symmetric assemblies) (all columns from GE healthcare) using the absorbance at 230 nm or 473 nm (for GFP tagged components) as read-out. Dimers were mixed at monomer concentrations of 5 μM or higher. Trimer and ABCD tetramer mixtures contained 5 μM of the bivalent connector, and 7.5 μM of each terminal cap (lower absolute concentrations with the same ratios were used for some trimers). ABCA tetramer mixtures contained 5 μM per bivalent connector and 15 μM terminal cap. The hexamer mixture contained 3 μM of components C and D, 3.6 μM of B and E, and 4.4 μM of A and F. The branched assembly shown in FIG. 4A contained 2.8 μM of the trivalent connector and 4 μM of each cap. For the exchange experiment shown in FIG. 5A, the ABC trimer was preincubated at concentrations of 6 μM B and 9 μM each of A and C. C′ was then added to reach a final concentration of 2 μM B, 3 μM each of A and C, and 6 μM C′.

The target of the next data set is T3, 101B62. Described as above. Here is the method:
as §1

In the data set “101B14” the target is B5. The data set is described as above. The procedure: as §1
The next data set addresses T4, LHD101 chainB. Briefly: BLI, dissociation rate constant (kdis). The procedure:
Biolayer interferometry experiments were performed on an OctetRED96 BLI system (ForteBio, Menlo Park, CA). Streptavidin coated biosensors were first equilibrated for at least 10 minutes in Octet buffer (10 mM HEPES pH 7.4, 150 mM NaCl, 3 mM EDTA, 0.05% Surfactant P20) supplemented with 1 mg/ml Bovine Serum Albumin (SigmaAldrich). Enzymatically biotinylated designs were immobilized onto the biosensors by dipping the biosensors into a solution with 10-50 nM protein for 30-120 s. This was followed by dipping in fresh octet buffer to establish a baseline for 120 s. Titration experiments were performed at 25° C. while rotating at 1,000 r.p.m. Association of designs was allowed by dipping biosensors in solutions containing designed protein diluted in octet buffer until equilibrium was approached followed by dissociation by dipping the biosensors into fresh buffer solution in order to monitor the dissociation kinetics. Steady-state and global kinetic fits were performed using the manufacturer's software (Data Analysis 9.1) assuming a 1:1 binding model.
In general terms: BLI is a label-free optical method that tracks binding on a fibre tip over time.

The next data set addresses T5, DF202. The experiment in a line: SEC of mixed components; trimer listed in Table 6. Here is the method: as §1

Positions count from the first letter of the chain named. In names and notes the source's numbering stands.

With B1, the binding result in data set [1] was “binds”. Still for that read-out and setting: with B2 the entry was “binds”.

As to B3, the binding result in the data set with LHD101 chainA is on record as “binds”. Regarding B4, the binding result with 274B53 was “binds”.

For the molecule B5, the binding result in data set [1] is listed as “no binding (tested: 114.0 uM)”. In the case of B6, the binding result with 101B62 and with 101B14 was “binds” throughout.

By koff is commonly meant the first-order rate constant of dissociation. A low value points to a long-lived complex. B7 returned a koff with LHD101 chainB of 0.00653 s⁻¹. With B8, the koff in the data set with LHD101 chainB is 0.00941 s⁻¹. In the data set with LHD101 chainB, B9 yielded a koff of 0.0113 s⁻¹. Molecule B10 returned a koff in the data set with LHD101 chainB of 0.0102 s⁻¹.

On to B11, for which, in the data set with DF202, the binding result is recorded as “binds”.

As to B12, the binding result in data set [1] was “binds”.

The values above are taken from patent US20240368233A1 (University of Washington, published 2024).
